Reference: the supplement of paper PMC12042874
± gives the uncertainty stated by the source.

Experiment: amyloid nucleation score (Sup35N fusion, yeast selection) (log enrichment); library NNK1; higher = more nucleation; inactive = no reads after selection
Outline: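 Yeast lacking psi expressed peptides of 20 random codons fused to Sup35N, received 100 μM copper sulfate for 24 hours, and were then grown for 7 days at 30°C on medium lacking adenine and uracil. Illumina sequencing of input and output plasmid inserts provided the reads. Nucleation scores are DiMSum log enrichments of output over input, centred on the mode of non-aggregating sequences. Any sequence with under 100 input reads was excluded.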

Substance | amyloid nucleation score
SFVCRCFSMCNGEILFLIPY | 0.644 ± 1
SGAGVGSPVVKELSWFKLKV | 0.331 ± 0.77
SGAPESYGDTNRRIVSSCFL | inactive
SGAPRSCFNHSVFRMRASCL | 0.114 ± 1.4
SGAVCIQALKVDTQCFADMI | -0.413 ± 0.38
SGGWTSLDGDMSCSSVTYLV | -0.703 ± 0.84
SGHDGARVVMRRILYTSKSG | 0.291 ± 0.34
SGIRLM | -1.32 ± 1.8
SGKYAFLFLVYCTGVLMKCW | -1.17 ± 1.7
SGLFMWYGSQTPYNIMMKQK | inactive
SGLFPVLGEHGNHRVSGSI | -1.4 ± 1.6
SGNKGRLSLLYYILFMPWLA | -0.412 ± 1
SGRPGTAQLRVVLGHNQKCA | 1.12 ± 0.97
SGRYMWQEISLMFCLSDVSP | 0.836 ± 0.58
SGSGRCTNLSCVGGFGKWLM | 0.714 ± 0.6
SGTESEFKVKMNKLQSSYMG | -0.022 ± 0.45
SGVLLINGVA | 0.699 ± 0.42
SHGVVYGFIMLVMEEYLRQQ | -0.376 ± 0.27
SHLLLHSLWSDPGIIVDLYT | inactive
SHNGCKIWGMDNLIVH | -0.616 ± 0.46
SHPMDKRLWEKSYKAVGVCV | 0.174 ± 0.58
SHRRGVKSTFLMRRLHYMWY | 0.168 ± 0.62
SHRSRGLANRSCDGVPTVRR | 1.84 ± 0.46
SHVLCSDTNTI | inactive
SIDFV | 0.989 ± 0.88
SIDGWNSKVKGFEFRMGGT | -0.045 ± 0.32

Substance | amyloid nucleation score
SIDVSDSSRDGYSDMWSKCK | -0.164 ± 0.24
SIFLKIPNREVLSSFRWTCF | -0.372 ± 0.22
SIFSSNCNL | -0.36 ± 0.24
SIIYQVRRLCGSYVSILGSQ | 0.251 ± 0.69
SIKCGVVHLNRMVRAQSKLC | 0.136 ± 1.5
SIKFIRTYWWITNSVDKFV | inactive
SILCESFVGCLDAMRDRVYY | -0.036 ± 0.61
SIQPIW | 0.952 ± 0.5
SIVNVDVALSHLCSYQRSRM | 4.11 ± 0.1
SIYALVSCSVFVTAMDAVQA | 4.17 ± 0.061
SIYKSSEREVVY | inactive
SKCAVQCLVG | 0.986 ± 0.2
SKCDQSIRYSRGNETPLDSL | 0.274 ± 0.83
SKFTYRV | -0.302 ± 0.38
SKFVT | 1.2 ± 0.9
SKHRSIYFIPLSHVESVVVW | -0.192 ± 1.1
SKIHYMF | -0.942 ± 0.57
SKSFDRKMVC | -0.092 ± 0.33
SKSGLDDGHDA | -0.335 ± 0.23
SKTSEGLLLYVISYRNYYGP | 0.671 ± 0.4
SKTVVTKVKLSIWAGRVLRF | -1.14 ± 1.9
SKWLIRGCL | 1.6 ± 0.21
SLAGFCMQPRTLLV | 0.86 ± 0.83
SLAQFRWVV | 1.52 ± 0.13
SLCVWDSFNPERTGLFMRWI | 0.99 ± 0.93
SLDYKFSFLSQ | 6.963 ± 0.045

Substance | amyloid nucleation score
SLEDEEQLYLANSIREGLAV | 0.76 ± 0.51
SLEVRNRCNVYVAAANLLVM | 2.76 ± 0.095
SLEWFSRWSN | 1.15 ± 0.37
SLFEFWSDNFNQEQ | 1.49 ± 0.76
SLGFIFTEILYIFIVAWFII | 0.198 ± 0.47
SLILFV | 0.856 ± 0.45
SLINTRVPPLENNAC | -0.443 ± 0.51
SLITVSHMPWGCT | 0.342 ± 0.36
SLIYGILCKINQ | -0.064 ± 0.44
SLLLLMGALSHGMRLFKGSS | 0.268 ± 0.82
SLLPDPHYMTQVW | -0.559 ± 0.55
SLLTYQ | 0.757 ± 0.27
SLMTQDCNFRYYLKRCI | 0.894 ± 0.63
SLNFTDHIYYMDGLLIAVVE | 0.358 ± 0.32
SLNVNLMSRVYSSAREGGVS | 1.73 ± 0.2
SLPFVTLLNAMCVCSGANCL | 8.449 ± 0.045
SLQISCQWYAVWGHMLLSDF | inactive
SLQPVYAATCSSFHYSFFAG | 4.89 ± 0.074
SLRCVPVVSMRVRSDSSLYK | 0.529 ± 0.9
SLRKKVSSVCSC | 0.838 ± 0.54
SLRWSQSPFYFVTSIGRQGG | 0.585 ± 0.55
SLSFSCSVKV | -0.149 ± 0.54
SLSMDIAVRSTTNRHANNIL | -0.494 ± 1.1
SLSMLTARGLILNMCNGMRF | 1.52 ± 0.84
SLSRD | -0.393 ± 0.41
SLTYCHSIIKDLETLIFRSK | 0.283 ± 0.61

Substance | amyloid nucleation score
SLVSPRCSKMMFWGLPGVMM | 0.088 ± 0.29
SLVVVGCWLAANQESK | 1.28 ± 0.33
SLYCNGVRMPLAETSGNEHL | -0.091 ± 0.43
SLYNTLEVNDNKHRVNFLVA | 0.652 ± 0.58
SLYTKWKSILPNWVFVCIAL | -1.35 ± 0.38
SMDNYIVNSSTVWPSSFSLK | 4.73 ± 0.075
SMEGLMSLMHSRISRFVFRV | 0.168 ± 1.2
SMHHGFYCDVWLGGVILRCK | 0.047 ± 0.56
SMHSLGSHEGSRRIPGLSFD | -0.007 ± 1.2
SMIPSNGTRLMLDSLTKYID | inactive
SMNHVFYYFIRMWTSM | 0.156 ± 0.63
SMRCKSYGCC | 0.3 ± 0.59
SMTSWWVRGLLPVNGD | 2.53 ± 0.13
SMVPQTMGVSQESRCYAGSC | -0.215 ± 0.65
SMYSNRHHDWFR | -0.412 ± 1.4
SNAIVTFIVGVAAPGTYYS | 6.47 ± 0.062
SNCERAIAKSHLVARPFSVS | 0.16 ± 0.73
SNDVIVWYPIDEGHAGCAYL | 1.75 ± 0.66
SNECLRNGAFYDCPVREAWM | -0.346 ± 0.27
SNEYLCYYMSTNA | -0.345 ± 0.39
SNFFVRFNTVTNFSMWDEYY | inactive
SNFINLGRWFRIDL | 0.377 ± 0.53
SNHDNFYPVVLCMESKYNIE | 0.302 ± 0.34
SNKSSSDIDCVYLENCSTSG | 1.43 ± 0.36
SNLLGSMFLLCHQIKHRPEI | -0.764 ± 0.34
SNMRRASFNHGGRWNSGRGN | -1.1 ± 2.4

Substance | amyloid nucleation score
SNNELSTMTRL | -1.01 ± 1.2
SNSFYREVNWGNRT | 0.216 ± 0.57
SNSSLECYCMNVVRFHLGLS | 0.735 ± 0.18
SNSVRNRRIFKKSTVRH | -0.055 ± 0.36
SNVHCPWKL | -1.74 ± 2.7
SNWFCGFYDWISVLFNSLKL | 1.42 ± 0.65
SPKPYFSRKYVIKIHKRS | -1.54 ± 1.4
SPKSPPL | -0.053 ± 0.62
SPPFQSELMLPLRLSGLVSS | 1.28 ± 0.93
SPPMSKLVMATRVLKCMDPS | 0.086 ± 0.79
SPRAWRMGHGLVGWVMEKKG | 0.476 ± 1.1
SPRLAGMVSMVDKCRRASGR | 0.097 ± 0.33
SPTTKCLPSERSSINCNLMT | 0.311 ± 0.68
SQDGISMMLGMSGWRGHASV | 0.659 ± 1
SQFISK | 1.14 ± 0.52
SQLARLLFIAGIVPTRARVI | 0.144 ± 0.64
SQVLGSLLFRSPRVWICVAG | -0.969 ± 2.1
SRAAFVSSKPYMSWGVTYVH | -0.792 ± 1.3
SRDASLDRPSRRV | -0.465 ± 0.49
SRFKTDYTG | -0.492 ± 0.68
SRGLFCWWRSTWRGVL | -1.28 ± 2.4
SRKKKIVITEPNHSSRHQSV | 0.003 ± 0.86
SRKVKVWPVGLRRLVMFFVN | 1.43 ± 0.53
